# Assay results from the supplement of paper PMC10724198.
# Columns and labels:
# [1] = tested on: Saccharomyces cerevisiae; assay: protein stability index of tFT-peptide fusion in wild type (PSI (0-1 scale)); higher = more stable (slower turnover); settings: genetic background: wild type
# Protocol: (§1)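 MPS profiling in S. cerevisiae of two library types built from selected 12-aa C-degron peptides (IN1, IN2, LN1, LN3, VN2, R1-R5, W1-W3, Atg1 and Rpa12 C-termini): saturation mutagenesis libraries and C-terminal +1 capping libraries (13 aa). Each peptide is fused to the C-terminus of a sfGFP-mCherry timer, after a GGGS linker. Cells are FACS-sorted into 8 mCherry/sfGFP bins and sequenced. PSI runs from 0 (unstable) to 1 (stable), measured once in wild type and in the das1Δ or doa10Δ background.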
# [2] = tested on: Saccharomyces cerevisiae; assay: protein stability index of tFT-peptide fusion in deletion strain of DAS1 (PSI (0-1 scale)); higher = more stable (slower turnover)
# Protocol: as §1
# 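For protein stability index of tFT-peptide fusion in deletion strain of DAS1 in this document: PSI is a weighted mean of each variant's read distribution over the sorted stability bins, computed only for variants having over 10 reads in total.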
# 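For protein stability index of tFT-peptide fusion in wild type in this document: PSI derived as read-weighted mean over the 8 sorting bins, only variants exceeding 10 total reads kept, mCherry placed adjacent to the peptide and sfGFP distal.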
sequence,measurement,setting,value
FSMRWTFRYWVC,protein stability index,[1],0.0396
same,protein stability index,[2],0.403
ARWRVGLWGGAS,protein stability index,[1],0.554
same,protein stability index,[2],0.674
VRGAVGGYRLVG,protein stability index,[1],0.658
same,protein stability index,[2],0.681
FSMRWSFRYWVN,protein stability index,[1],0.0724
same,protein stability index,[2],0.544
ARERVGLWRGAS,protein stability index,[1],0.609
same,protein stability index,[2],0.726
PPKRNHLIKLLN,protein stability index,[1],0.116
same,protein stability index,[2],0.581
VRGAVTGWRLVG,protein stability index,[1],0.157
same,protein stability index,[2],0.684
ARWRVGTWRGAS,protein stability index,[1],0.535
same,protein stability index,[2],0.687
PSMRWTFRYWVN,protein stability index,[1],0.0877
same,protein stability index,[2],0.571
KKHKKGQKQKAN,protein stability index,[1],0.308
same,protein stability index,[2],0.709
FSMRDTFRYWVN,protein stability index,[1],0.0684
same,protein stability index,[2],0.833
CTSCGYEFRTNN,protein stability index,[1],0.64
same,protein stability index,[2],0.675
NVVYLSCVACIN,protein stability index,[1],0.0156
same,protein stability index,[2],0.0341
RLIQPLLVQFLN,protein stability index,[1],0.0592
same,protein stability index,[2],0.575
LKILRLKMNHQN,protein stability index,[1],0.171
same,protein stability index,[2],0.65
LKILRQKMNLQN,protein stability index,[1],0.221
same,protein stability index,[2],0.666
ARWRVLLWRGAS,protein stability index,[1],0.4
same,protein stability index,[2],0.628
PSLAHSFWRVVG,protein stability index,[1],0.167
same,protein stability index,[2],0.669
PAKRNHLIKLLN,protein stability index,[1],0.131
same,protein stability index,[2],0.618
KTSCGYKFRTNN,protein stability index,[1],0.225
same,protein stability index,[2],0.679
LLVYLSCVACIN,protein stability index,[1],0.0174
same,protein stability index,[2],0.0429
ARWRMGLWRGAS,protein stability index,[1],0.605
same,protein stability index,[2],0.689
KKHKKGQKQMIN,protein stability index,[1],0.117
same,protein stability index,[2],0.591
CTSCGYKFRTNNY,protein stability index,[1],0.677
same,protein stability index,[2],0.704
RLIPPLPVQFLN,protein stability index,[1],0.0667
same,protein stability index,[2],0.576
CTSCGYKFRHNN,protein stability index,[1],0.555
same,protein stability index,[2],0.705
CTVCGYKFRTNN,protein stability index,[1],0.28
same,protein stability index,[2],0.704
PSLAALFWRVVG,protein stability index,[1],0.129
same,protein stability index,[2],0.674
HDKRNHLIKLLN,protein stability index,[1],0.077
same,protein stability index,[2],0.581
